# Measured values: the supplement of paper PMC9112550, “Optimization of the antimicrobial peptide Bac7 by deep mutational scanning” (BMC Biology, 2022)
# Tested on: Escherichia coli TOP10
# Test: shrunken log2 fold change of peptide-encoding DNA abundance (4.5 h post-induction vs induction); higher = less antimicrobial activity (less host growth inhibition)
# Settings: time post-induction: 4.5 h; library: site-saturation at positions 5, 18, 19, 20
# 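Further: peptides expressed intracellularly from a pBAD plasmid library in pooled LB shake-flask culture, induced with 0.3% L-arabinose, DNA abundance read by NGS, three biological replicates, DESeq2 with apeglm shrinkage.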
row,Sequence,shrunken log2 fold change
1,RRIRRRPPRLPRPRPRPYSKPRP,-0.129
2,RRIRCRPPRLPRPRPRPKENPRP,0.192
3,RRIRARPPRLPRPRPRPCVSPRP,-0.0271
4,RRIRCRPPRLPRPRPRPPKEPRP,0.203
5,RRIRYRPPRLPRPRPRPIYKPRP,-0.396
6,RRIRDRPPRLPRPRPRPRLSPRP,0.286
7,RRIRIRPPRLPRPRPRPWMHPRP,0.0105
8,RRIRFRPPRLPRPRPRPFNHPRP,-0.285
9,RRIRCRPPRLPRPRPRPYVLPRP,-0.903
10,RRIRYRPPRLPRPRPRPLCMPRP,-0.795
11,RRIRVRPPRLPRPRPRPIQAPRP,-0.0344
12,RRIRVRPPRLPRPRPRPPGNPRP,0.17
13,RRIRTRPPRLPRPRPRPYPRPRP,-0.0911
14,RRIRSRPPRLPRPRPRPNIHPRP,0.829
15,RRIRERPPRLPRPRPRPPFLPRP,-0.075
16,RRIRWRPPRLPRPRPRPQHCPRP,-0.115
17,RRIRHRPPRLPRPRPRPYHKPRP,-0.412
18,RRIRMRPPRLPRPRPRPISHPRP,-0.018
19,RRIRRRPPRLPRPRPRPTFPPRP,0.444
20,RRIRYRPPRLPRPRPRPFRPPRP,-0.0325
21,RRIRLRPPRLPRPRPRPTLYPRP,2.28
22,RRIRGRPPRLPRPRPRPPRRPRP,1.28
23,RRIRPRPPRLPRPRPRPFDMPRP,0.08
24,RRIRGRPPRLPRPRPRPWQKPRP,0.09
25,RRIRRRPPRLPRPRPRPQPMPRP,0.606

row,Sequence,shrunken log2 fold change
1,RRIRQRPPRLPRPRPRPQSCPRP,0.00408
2,RRIRGRPPRLPRPRPRPNFSPRP,0.078
3,RRIRNRPPRLPRPRPRPHHRPRP,0.0742
4,RRIRWRPPRLPRPRPRPRCGPRP,0.672
5,RRIRQRPPRLPRPRPRPVMIPRP,-0.286
6,RRIRARPPRLPRPRPRPAMAPRP,0.479
7,RRIRPRPPRLPRPRPRPKIAPRP,-0.1
8,RRIRVRPPRLPRPRPRPTTNPRP,0.0416
9,RRIRGRPPRLPRPRPRPVRMPRP,0.963
10,RRIRSRPPRLPRPRPRPALKPRP,0.161
11,RRIRYRPPRLPRPRPRPRWIPRP,-0.553
12,RRIRKRPPRLPRPRPRPARRPRP,0.888
13,RRIRARPPRLPRPRPRPSNVPRP,-0.248
14,RRIRDRPPRLPRPRPRPAWVPRP,0.103
15,RRIRWRPPRLPRPRPRPPDAPRP,0.5
16,RRIRMRPPRLPRPRPRPGTMPRP,-0.115
17,RRIRGRPPRLPRPRPRPIIQPRP,0.203
18,RRIRKRPPRLPRPRPRPYYFPRP,-0.234
19,RRIRFRPPRLPRPRPRPRECPRP,0.277
20,RRIRHRPPRLPRPRPRPDSGPRP,-0.0385
21,RRIRWRPPRLPRPRPRPHKLPRP,-0.135
22,RRIRIRPPRLPRPRPRPYEVPRP,-0.248
23,RRIRPRPPRLPRPRPRPGNMPRP,-0.119
24,RRIRSRPPRLPRPRPRPSQCPRP,-0.265
25,RRIRWRPPRLPRPRPRPDRHPRP,-0.157

row,Sequence,shrunken log2 fold change
1,RRIRTRPPRLPRPRPRPHMIPRP,-0.138
2,RRIRNRPPRLPRPRPRPNTGPRP,0.0312
3,RRIRIRPPRLPRPRPRPGEQPRP,-0.0156
4,RRIRKRPPRLPRPRPRPRVNPRP,0.0555
5,RRIRHRPPRLPRPRPRPREAPRP,-0.0215
6,RRIRKRPPRLPRPRPRPANTPRP,-0.0533
7,RRIRPRPPRLPRPRPRPCTLPRP,-0.029
8,RRIRPRPPRLPRPRPRPRKYPRP,-0.352
9,RRIRKRPPRLPRPRPRPNAGPRP,-0.00783
10,RRIRTRPPRLPRPRPRPFGAPRP,0.334
11,RRIRSRPPRLPRPRPRPQESPRP,-0.0242
12,RRIRSRPPRLPRPRPRPKIEPRP,-0.0199
13,RRIRRRPPRLPRPRPRPHLGPRP,-0.044
14,RRIRHRPPRLPRPRPRPIWAPRP,0.0355
15,RRIRFRPPRLPRPRPRPNWSPRP,-0.0531
16,RRIRVRPPRLPRPRPRPPKWPRP,0.133
17,RRIRQRPPRLPRPRPRPVQRPRP,0.862
18,RRIRCRPPRLPRPRPRPFLMPRP,-0.422
19,RRIRERPPRLPRPRPRPDGYPRP,0.0107
20,RRIRFRPPRLPRPRPRPQVVPRP,-0.152
21,RRIRTRPPRLPRPRPRPMFQPRP,-0.446
22,RRIRHRPPRLPRPRPRPVQEPRP,-0.0785
23,RRIRERPPRLPRPRPRPWIRPRP,-0.667
24,RRIRIRPPRLPRPRPRPVTQPRP,-0.0794
25,RRIRQRPPRLPRPRPRPYAEPRP,-0.0595
